This is an account of results in PMC2873993, “Comparative Therapeutic Effects of Velaglucerase Alfa and Imiglucerase in a Gaucher Disease Mouse Model” (PLoS ONE, 2010).

Data set [1] can be described thus: Serum GCase activity, CRIM and CRIM-SA after i.v. bolus. The conditions noted are these: for Recovery of injected activity in serum: 60 U/kg bolus, peak 2 min, % ± SE.
The next data set concerns 9 V/null mice. Description: Total serum IgE ELISA in mice that died after injection. The conditions noted are these: mice that died after 4 or 5 injections of 60 U/kg/wk, n = 3.
Data set [2] in a line: Tissue GCase activity, CRIM and CRIM-SA (liver, spleen, lung) after i.v. bolus. The conditions noted are these: for Recovery of injected activity in liver / Recovery of injected activity in lung / Recovery of injected activity in spleen: 60 U/kg bolus, % ± SE; for peak liver activity relative to WT: 20 min.
For a further data set, the system named is patients. The conditions noted are these: human, in vivo; cited from earlier work.
Setting [3] is: 5-wk 9 V/null mice, peak 20 min.
[4] abbreviates: 5-wk 9 V/null mice, 60 U/kg i.v.
[5] abbreviates: 20-wk 9 V/null mice, peak 20 min.
Where [6] appears, read: 20-wk 9 V/null mice, 60 U/kg i.v.

Numbering of substitutions follows the chain as printed.

B1: velaglucerase alfa (protein)
chain: ARPCIPKSFGYSSVVCVCNATYCDSFDPPTFPALGTFSRYESTRSGRRMELSMGPIQANHTGTGLLLTLQPEQKFQKVKGFGGAMTDAAALNILALSPPAQNLLLKSYFSEEGIGYNIIRVPMASCDFSIRTYTYADTPDDFQLHNFSLPEEDTKLKIPLIHRALQLAQRPVSLLASPWTSPTWLKTNGAVNGKGSLKGQPGDIYHQTWARYFVKFLDAYAEHKLQFWAVTAENEPSAGLLSGYPFQCLGFTPEHQRDFIARDLGPTLANSTHHNVRLLMLDDQRLLLPHWAKVVLTDPEAAKYVHGIAVHWYLDFLAPAKATLGETHRLFPNTMLFASEACVGSKFWEQSVRLGSWDRGMQYSHSIITNLLYHVVGWTDWNLALNPEGGPNWVRNFVDSPIIVDITKDTFYKQPMFYHLGHFSKFIPEGSQRVGLVASQKNDLDAVALMHPDGSAVVVVLNRSSKDVPLTIKDPAVGFLETISPGYSIHTYLWRRQ
modifications: N-linked oligosaccharides with higher α-mannosyl content (predominant number of mannoses is 9)
Turning to B1, in data set [1] (5-wk 9 V/null mice), the “Recovery of injected activity in serum” value is on record as 63.06±4.62%. In addition, in data set [1] (9 V/null mice, 60 U/kg i.v.), the “serum activity by 20 min post-injection” value is reported as < 10 % of the 2-min values and the “t½ of clearance of GCase activity in serum” value is 8 to 11 min. Also, the “Recovery of injected activity in serum” value in data set [1] (20-wk 9 V/null mice) is given as 58.16±1.61%. Besides, the “catalytic value (CRIM-SA) of intact enzyme remaining in serum by 20 min” value in data set [1] (60 U/kg i.v.) is < 10 % of its original catalytic value. Moreover, in data set [1] (both age groups, 60 U/kg i.v.), the “t½ of GCase CRIM disappearance in serum” value is around 0.217 h. In addition, in the data set with 9 V/null mice, the “Total serum IgE levels” value is 46.4 to 234.9 ng/mL. Also, in data set [2] (setting [3]), the “Recovery of injected activity in liver” value was 57.53±1.35% and the “Recovery of injected activity in lung” value was 0.1±0.01%. Besides, the “Recovery of injected activity in spleen” value in data set [2] (5-wk 9 V/null mice, peak 40 min) was found to be 1.86±0.06%. Moreover, in data set [2] (setting [4]), the “drop of liver activity within 40 min” value was “about 60%”, the “liver GCase activity by 42 h” value is recorded as 13–18 % of WT, the “peak spleen activity lower than in 20-wk mice” value is 2- to 3 fold and the “splenic CRIM-SA” value is recorded as 0.2–0.8×10^6 nmoles/h/mg enzyme protein. In data set [2] (setting [4]), the “time liver activity remained at ≥WT level” value lay within 70 to 80 min, the “t½ of CRIM levels in spleen” value is around 2 h, the “t½ of activity disappearance in liver” value is reported as “about 60 min” and the “peak liver activity relative to WT” value is on record as around 2.5 fold. In addition, in data set [2] (setting [5]), the “Recovery of injected activity in liver” value was found to be 60.36±2.01%, the “Recovery of injected activity in lung” value is reported as 0.04±0.01% and the “Recovery of injected activity in spleen” value came to 2.62±0.08%. Besides, in data set [2] (setting [6]), the “decrease of liver GCase activity within 40 min” value is on record as around 30%, the “decrease of spleen enzyme activity by 40 min” value is on record as around 40%, the “liver GCase activity by 42 h” value is 13–15 % of WT and the “time liver activity remained at or above WT levels” value came to 3 h. For the same molecule, in data set [2] (setting [6]), the “time spleen activity remained at ≥WT levels” value is on record as around 3.5 h, the “t½ of CRIM disappearance in liver” value is 1.5 to 1.83 h, the “t½ of GCase activity disappearance in liver” value was around 1.67 h and the “t½ of GCase protein disappearance in spleen” value lay in the range of 1.0 to 1.5 h. Moreover, the “peak liver activity relative to WT” value in data set [2] (setting [6]) is 2.5- to 3.5 fold. Further, the “peak spleen activity relative to WT” value in data set [2] (20-wk 9 V/null mice, 20 min post-injection, 60 U/kg i.v.) is 3- to 4.5 fold. In addition, in data set [2] (20-wk 9 V/null mice, as restated), the “time liver activity remained at ≥WT level” value is on record as around 180 min. Moreover, the “enzyme recovered in spleens and lungs” value in data set [2] (after bolus i.v. injections, abstract) is recorded as below 5%. For the same molecule, the “injected enzyme recovered from the liver” value in data set [2] (intravenous bolus, discussion) was at least 60%.

B2: imiglucerase (protein)
chain: B1 chain with R495H
modifications: short N-linked oligosaccharide chains with ~3 exposed α-mannosyl residues
Turning to B2, in the data set on patients, the “documented IgE-mediated or anaphylactic reactions” value is on record as below 1% and the “patients who developed an IgG antibody response” value is 13–15%.
